Data on one molecule can be found in paper PMC4117452, “Immunolocalization of Anti-Hsf1 to the Acetabular Glands of Infectious Schistosomes Suggests a Non-Transcriptional Function for This Transcriptional Activator”.

The data set addresses T1, MBP-SmHsf1 (Schistosoma mansoni, UniProt G4VTC5 1-658).
T1 sequence: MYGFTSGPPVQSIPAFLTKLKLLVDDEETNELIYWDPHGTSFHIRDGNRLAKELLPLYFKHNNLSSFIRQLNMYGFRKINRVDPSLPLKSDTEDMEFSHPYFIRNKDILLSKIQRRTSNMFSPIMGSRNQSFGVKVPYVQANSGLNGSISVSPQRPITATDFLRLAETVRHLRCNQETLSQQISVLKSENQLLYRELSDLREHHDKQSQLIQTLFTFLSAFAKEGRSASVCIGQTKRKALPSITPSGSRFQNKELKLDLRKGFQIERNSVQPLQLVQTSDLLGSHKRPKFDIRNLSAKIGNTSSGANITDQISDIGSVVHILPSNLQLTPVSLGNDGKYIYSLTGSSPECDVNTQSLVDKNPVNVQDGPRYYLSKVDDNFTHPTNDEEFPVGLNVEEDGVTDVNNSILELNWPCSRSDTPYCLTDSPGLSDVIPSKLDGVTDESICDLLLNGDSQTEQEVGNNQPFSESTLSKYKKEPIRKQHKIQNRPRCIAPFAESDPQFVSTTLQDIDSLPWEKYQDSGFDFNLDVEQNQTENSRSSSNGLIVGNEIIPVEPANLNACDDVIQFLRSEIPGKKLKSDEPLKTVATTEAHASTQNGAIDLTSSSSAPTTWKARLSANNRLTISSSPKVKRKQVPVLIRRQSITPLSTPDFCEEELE
Kind of data set: competition; EMSA vs oKI068(ds), 250-fold unlabeled; 'great affinity'; LightShift EMSA binding buffer with glycerol, MgCl2, poly-dIdC, NP-40 (concentrations, pH and temperature not stated), 30 min; 5% native PAGE, 0.5x TBE. Conditions: protein: recombinant; tags: N-terminal MBP (pMAL-c5X); chain copies: 3; blunt. A general note: A gel shift assay detects complexes by their altered migration in electrophoresis.

B1: oKI073/074 consensus HSE (dsDNA)
DNA 1: GATCGTCATAGAAAGTTCTAGAACGATC
DNA 2: GATCGTTCTAGAACTTTCTATGACGATC
Turning to B1, the binding result is reported as “binds”.
